What is called stoichiometry N is a count of units in the complex or per binding partner. In general, EC50 refers to the concentration at which the effect is half-maximal. A low value points to an effect from little substance.

Series [1] concerns the molecule itself. The series can be described thus: SEC. For orientation: SEC sorts molecules by how far they enter the pores of the column.
For series [2], the target named is X1BR2-GFP (C-terminal BRCT domain of XRCC1 fused to C-terminal GFP) (human, UniProt P18887 538-633). The series can be described thus: GFP-fluorescence-based competition binding assay.
Series [3] deals with the molecule itself. Put plainly: SAXS.
Series [4] deals with T1, L3BR (residues 825-922) (human, UniProt P49916-3 825-922).
T1 sequence (looked up): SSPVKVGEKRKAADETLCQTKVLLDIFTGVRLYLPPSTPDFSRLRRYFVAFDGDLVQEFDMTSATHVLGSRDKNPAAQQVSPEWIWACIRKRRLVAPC
The series can be described thus: native gel or EMSA. (In general: Mobility shift assays separate free from complexed probe on a gel.)

B1: MBP-L3BR^832 (C-terminal BRCT domain of DNA ligase IIIα, residues 832-922, N-terminal MBP fusion) (domain or fragment, human, UniProt P49916-3 832-922, looked up)
chain: EKRKAADETLCQTKVLLDIFTGVRLYLPPSTPDFSRLRRYFVAFDGDLVQEFDMTSATHVLGSRDKNPAAQQVSPEWIWACIRKRRLVAPC
Regarding B1, in series [1], the “stoichiometry N” value was 2. In series [2], this molecule registered an EC50 of 1240 nM.

B2: L3BR^832 fused to C-terminal GFP (domain or fragment, human, UniProt P49916-3 832-922, looked up)
chain: EKRKAADETLCQTKVLLDIFTGVRLYLPPSTPDFSRLRRYFVAFDGDLVQEFDMTSATHVLGSRDKNPAAQQVSPEWIWACIRKRRLVAPC
Turning to B2, in series [1], the “stoichiometry N” value amounted to 2.

B3: L3BR^832 (untagged, residues 832-922 of DNA ligase IIIα) (domain or fragment, human, UniProt P49916-3 832-922, looked up)
chain: EKRKAADETLCQTKVLLDIFTGVRLYLPPSTPDFSRLRRYFVAFDGDLVQEFDMTSATHVLGSRDKNPAAQQVSPEWIWACIRKRRLVAPC
In the case of B3, the “stoichiometry N” value in series [3] was found to be 2.

B4: X1BR2 L626E (residues 538-633), designated wild type (WT) in Figure 1E (domain or fragment, human, UniProt P18887 538-633, looked up)
chain: ELPDFFQGKHFFLYGEFPGDERRKLIRYVTAFNGELEDYMSDRVQFVITAQEWDPSFEEALMDNPSLAFVRPRWIYSCNEKQKLLPHQEYGVVPQA
Consider B4, for which, in series [4], the binding result is on record as “binds”.

B5: X1BR2 N570A (on the L626E template, residues 538-633) (domain or fragment, human, UniProt P18887 538-633, looked up)
chain: ELPDFFQGKHFFLYGEFPGDERRKLIRYVTAFAGELEDYMSDRVQFVITAQEWDPSFEEALMDNPSLAFVRPRWIYSCNEKQKLLPHQEYGVVPQA
On to B5, for which, in series [4], the binding result is “binds”.

B6: X1BR2 Y565A (on the L626E template, residues 538-633) (domain or fragment, human, UniProt P18887 538-633, looked up)
chain: ELPDFFQGKHFFLYGEFPGDERRKLIRAVTAFNGELEDYMSDRVQFVITAQEWDPSFEEALMDNPSLAFVRPRWIYSCNEKQKLLPHQEYGVVPQA
Take B6: in series [4], the binding result is given as “binds”.

B7: X1BR2 F569A (on the L626E template, residues 538-633) (domain or fragment, human, UniProt P18887 538-633, looked up)
chain: ELPDFFQGKHFFLYGEFPGDERRKLIRYVTAANGELEDYMSDRVQFVITAQEWDPSFEEALMDNPSLAFVRPRWIYSCNEKQKLLPHQEYGVVPQA
Regarding B7, the binding result in series [4] is given as “binds”.

B8: phosphorylated XRCC1ΔN (XRCC1ΔN-p, residues 294-633) (domain or fragment, human, UniProt P18887 294-633, looked up)
chain: AVTGKPRGEGTEPRRPRAGPEELGKILQGVVVVLSGFQNPFRSELRDKALELGAKYRPDWTRDSTHLICAFANTPKYSQVLGLGGRIVRKEWVLDCHRMRRRLPSQRYLMAGPGSSSEEDEASHSGGSGDEAPKLPQKQPQTKTKPTQAAGPSSPQKPPTPEETKAASPVLQEDIDIEGVQSEGQDNGAEDSGDTEDELRRVAEQKEHRLPPGQEENGEDPYAGSTDENTDSEEHQEPPDLPVPELPDFFQGKHFFLYGEFPGDERRKLIRYVTAFNGELEDYMSDRVQFVITAQEWDPSFEEALMDNPSLAFVRPRWIYSCNEKQKLLPHQLYGVVPQA
modifications: phosphorylated by casein kinase II (CK2) in the region between X1BR1 and X1BR2; sites not given
Turning to B8, in series [3], the binding result is “binds”.

B9: MBP-L3BR^844 (L3BR^832 lacking its 12 N-terminal residues, MBP fusion) (domain or fragment, human, UniProt P49916-3 844-922, looked up)
chain: TKVLLDIFTGVRLYLPPSTPDFSRLRRYFVAFDGDLVQEFDMTSATHVLGSRDKNPAAQQVSPEWIWACIRKRRLVAPC
On to B9, for which the midpoint of the response in series [2], the EC50, lay at 670 nM.

The record behind these values is article PMC7797052 (Nucleic Acids Research, 2020).
